Ends that are not written are not given here.
How the values were obtained:
Assay in all cases: PepSpot peptide array
[1] = molecular target: T1, peptide 48 (human)
T1 peptide: Ac-LWSLPSDQLELVA
Procedure: (§1) The peptides were synthesized on a cellulose membrane in a stepwise manner resulting in a defined arrangement (peptide array) and are covalently bound to the cellulose membrane. Binding assays were performed directly on the peptide array. In general an antigen peptide array is incubated with blocking buffer for several hours to reduce non-specific binding of proteins or antibodies. It follows the incubation with a primary (antigen peptide-binding) antibody in blocking buffer and an incubation with a horseradish peroxidase (HRP)-labelled secondary antibody, which binds selectively the primary antibody. Alternatively a HRP-labelled primary antibody in blocking buffer can be used.
(§2) A short T(Tween)-TBS-buffer washing directly after the incubation of the antigen peptide array with the secondary protein or antibody or the HRP-labelled primary antibody followed by the first chemiluminescence experiment is made to get an first overview which antigen peptides do bind the primary antibody. Several buffer washing steps follow (T-TBS- and TBS-buffer) to reduce false positive binding (unspecific antibody binding to the cellulose membrane itself). After these washing steps the final chemiluminescence analysis is performed. The data were analysed with an imaging system showing the signal intensity (Light units, LU) as single measurements for each peptide. In order to evaluate non-specific binding of secondary antibodies, incubations using the secondary antibody have to be performed in the absence of the primary antibody as control incubation.

[2] = molecular target: T2, peptide 119 (human)
T2 peptide: Ac-KVFTTETSRSITT
Procedure: as §1, §2

[3] = molecular target: T3, peptide 38 (human)
T3 peptide: Ac-IPAMKRSLAGRYR
Procedure: as §1, §2

[4] = molecular target: T4, peptide 66 (human)
T4 peptide: Ac-TLQCQTRYGFDQF
Procedure: as §1, §2

[5] = molecular target: T5, peptide 106 (human)
T5 peptide: Ac-RLPTEPPSSVAEF
Procedure: as §1, §2

[6] = molecular target: T6, peptide 109 (human)
T6 peptide: Ac-PSSVAEFSEATAE
Procedure: as §1, §2

[7] = molecular target: T7, peptide 83 (human)
T7 peptide: Ac-FPIITVTAAHSGT
Procedure: as §1, §2

[8] = molecular target: T8, peptide 23 (human)
T8 peptide: Ac-TLRCQGPPGVDLY
Procedure: as §1, §2

[9] = molecular target: T9, peptide 113 (human)
T9 peptide: Ac-EATAELTVSFTNK
Procedure: as §1, §2

[10] = molecular target: T10, peptide 43 (human)
T10 peptide: Ac-RYRCSYQNGSLWS
Procedure: as §1, §2

[11] = molecular target: T11, peptide 68 (human)
T11 peptide: Ac-QTRYGFDQFALYK
Procedure: as §1, §2

[12] = molecular target: T12, peptide 81 (human)
T12 peptide: Ac-YRASFPIITVTAA
Procedure: as §1, §2

[13] = molecular target: T13, peptide 122 (human)
T13 peptide: Ac-TSRSITTSPKESD
Procedure: as §1, §2

[14] = molecular target: T14, peptide 49 (human)
T14 peptide: Ac-SLPSDQLELVATG
Procedure: as §1, §2

[15] = molecular target: T15, peptide 4 (human, cysteine pairing not given here)
T15 peptide: Ac-ALFCLGLCLGRVP
Procedure: as §1, §2

[16] = molecular target: T16, peptide 129 (human)
T16 peptide: Ac-PAGPARQYYTKGN
Procedure: as §1, §2

[17] = molecular target: T17, peptide 30 (human)
T17 peptide: Ac-LEKLSSSRYQDQA
Procedure: as §1, §2

[18] = molecular target: T18, peptide 2 (human, cysteine pairing not given here)
T18 peptide: Ac-PSPTALFCLGLCL
Procedure: as §1, §2

[19] = molecular target: T19, peptide 131 (human)
T19 peptide: Ac-ARQYYTKGNGGRE
Procedure: as §1, §2

[20] = molecular target: T20, peptide 47 (human)
T20 peptide: Ac-GSLWSLPSDQLEL
Procedure: as §1, §2

[21] = molecular target: T21, peptide 10 (human)
T21 peptide: Ac-PAQSGPLPKPSLQ
Procedure: as §1, §2

[22] = molecular target: T22, peptide 88 (human)
T22 peptide: Ac-SGTYRCYSFSSRD
Procedure: as §1, §2

[23] = molecular target: T23, peptide 125 (human)
T23 peptide: Ac-TSPKESDSPAGPA
Procedure: as §1, §2

[24] = molecular target: T24, peptide 40 (human)
T24 peptide: Ac-KRSLAGRYRCSYQ
Procedure: as §1, §2

[25] = molecular target: T25, peptide 121 (human)
T25 peptide: Ac-TETSRSITTSPKE
Procedure: as §1, §2

[26] = molecular target: T26, peptide 26 (human)
T26 peptide: Ac-PPGVDLYRLEKLS
Procedure: as §1, §2

[27] = molecular target: T27, peptide 86 (human)
T27 peptide: Ac-TAAHSGTYRCYSF
Procedure: as §1, §2

[28] = molecular target: T28, peptide 39 (human)
T28 peptide: Ac-AMKRSLAGRYRCS
Procedure: as §1, §2

[29] = molecular target: T29, peptide 111 (human)
T29 peptide: Ac-AEFSEATAELTVS
Procedure: as §1, §2

[30] = molecular target: T30, peptide 62 (human)
T30 peptide: Ac-AVSSGGDVTLQCQ
Procedure: as §1, §2

[31] = molecular target: T31, peptide 28 (human)
T31 peptide: Ac-DLYRLEKLSSSRY
Procedure: as §1, §2

[32] = molecular target: T32, peptide 108 (human)
T32 peptide: Ac-EPPSSVAEFSEAT
Procedure: as §1, §2

[33] = molecular target: T33, peptide 130 (human)
T33 peptide: Ac-GPARQYYTKGNGG
Procedure: as §1, §2

[34] = molecular target: T34, peptide 92 (human)
T34 peptide: Ac-FSSRDPYLWSAPS
Procedure: as §1, §2

[35] = molecular target: T35, peptide 36 (human)
T35 peptide: Ac-AVLFIPAMKRSLA
Procedure: as §1, §2

[36] = molecular target: T36, peptide 69 (human)
T36 peptide: Ac-RYGFDQFALYKEG
Procedure: as §1, §2

[37] = molecular target: T37, peptide 61 (human)
T37 peptide: Ac-GPAVSSGGDVTLQ
Procedure: as §1, §2

[38] = molecular target: T38, peptide 93 (human)
T38 peptide: Ac-SRDPYLWSAPSDP
Procedure: as §1, §2

[39] = molecular target: T39, peptide 114 (human)
T39 peptide: Ac-TAELTVSFTNKVF
Procedure: as §1, §2

[40] = molecular target: T40, peptide 79 (human)
T40 peptide: Ac-PERWYRASFPIIT
Procedure: as §1, §2

[41] = molecular target: T41, peptide 76 (human)
T41 peptide: Ac-PAPYKNPERWYRA
Procedure: as §1, §2

[42] = molecular target: T42, peptide 102 (human)
T42 peptide: Ac-TGTSVTPSRLPTE
Procedure: as §1, §2

LU (Light Units) [1]: 47 LU | LU (Light Units) [2]: 287 LU | LU (Light Units) [3]: 1030 LU | LU (Light Units) [4]: 82 LU | LU (Light Units) [5]: 2 LU | LU (Light Units) [6]: 69 LU | LU (Light Units) [7]: 75 LU | LU (Light Units) [8]: 76 LU | LU (Light Units) [9]: 135 LU | LU (Light Units) [10]: 64 LU | LU (Light Units) [11]: 84 LU | LU (Light Units) [12]: 141 LU | LU (Light Units) [13]: 195 LU | LU (Light Units) [14]: 91 LU | LU (Light Units) [15]: 5 LU | LU (Light Units) [16]: 139 LU | LU (Light Units) [17]: 184 LU | LU (Light Units) [18]: 79 LU | LU (Light Units) [19]: 289 LU | LU (Light Units) [20]: 79 LU | LU (Light Units) [21]: 1330 LU | LU (Light Units) [22]: 64 LU | LU (Light Units) [23]: 25 LU | LU (Light Units) [24]: 139 LU | LU (Light Units) [25]: 186 LU | LU (Light Units) [26]: 101 LU | LU (Light Units) [27]: 58 LU | LU (Light Units) [28]: 134 LU | LU (Light Units) [29]: 136 LU | LU (Light Units) [30]: 49 LU | LU (Light Units) [31]: 179 LU | LU (Light Units) [32]: 12 LU | LU (Light Units) [33]: 255 LU | LU (Light Units) [34]: 110 LU | LU (Light Units) [35]: 125 LU | LU (Light Units) [36]: 78 LU | LU (Light Units) [37]: 71 LU | LU (Light Units) [38]: 107 LU | LU (Light Units) [39]: 226 LU | LU (Light Units) [40]: 119 LU | LU (Light Units) [41]: 78 LU | LU (Light Units) [42]: 160 LU
B1: monoclonal antibody hGP 5C4 (antibody, V domains shown)
VH: EVKLQESGGGLVQPGRSLKLSCTASGFTFSDYFMSWVRQAPTRGLEWVASISSGGASAYWRDSVKGRFTISRDNAKSALYLQMDSLRSEDTATYFCARGELDFDYWGQGVMVAVSS
VL: ADPNSTLLSASVGDRVTLNCTASQNVYKNLAWYQQKLGEAPRLLLYSANSQTGIPSRFSGSGSGPDFTLTISSLQPEDVASYFCQQYYSGNTFGAGTKLELKR
notes: Rat hybridoma antibody (Lou/C rats), heavy chain gamma 2a, light chain kappa; also called ab 5C4; anti-GPVI mAb 5C4
